Results reported in US20190218308A1 (INNATE PHARMA, published 2019).
Where a chain is given by its changes, count along the chain named.

Legend:
[1] = molecular target: T1, Human CD39-L3, also known as NTPDase3 or ENTPD3 (human, UniProt O75355 44-485, limits assumed); assay: ELISA on coated recombinant human CD39-L3 (panel huCD39 L3)
T1 construct: Recombinant protein coated in ELISA
T1 sequence: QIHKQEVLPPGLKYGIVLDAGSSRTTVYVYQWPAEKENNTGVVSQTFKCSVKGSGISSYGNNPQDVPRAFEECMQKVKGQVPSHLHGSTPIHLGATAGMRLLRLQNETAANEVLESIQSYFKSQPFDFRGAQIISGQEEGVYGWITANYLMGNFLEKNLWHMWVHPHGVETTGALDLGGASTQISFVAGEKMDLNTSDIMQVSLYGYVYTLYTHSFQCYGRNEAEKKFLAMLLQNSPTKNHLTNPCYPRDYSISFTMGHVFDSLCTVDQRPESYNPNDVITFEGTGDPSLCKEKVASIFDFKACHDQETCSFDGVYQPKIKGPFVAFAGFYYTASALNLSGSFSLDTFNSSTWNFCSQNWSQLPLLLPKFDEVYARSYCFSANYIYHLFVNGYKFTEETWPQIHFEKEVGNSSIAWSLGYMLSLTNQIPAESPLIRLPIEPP
Experimental: Wells were washed in TBS Tween 20, and further saturated 2H at RT in TBS Blocking buffer. Dose range concentration of primary antibody was incubated in TBS blocking buffer for 2 h at RT. Wells were washed in TBS Tween 20. […] Optical density was measured on Enspire™ at OD=450.

[2] = molecular target: T2, murine CD39 on CHO cells (murine, UniProt P55772 1-510); assay: flow cytometry titration on CHO cells expressing murine CD39 (panel CHO-moCD39)
T2 construct: whole, on cells; also called CHO-moCD39; mouse CD39
T2 sequence (looked up): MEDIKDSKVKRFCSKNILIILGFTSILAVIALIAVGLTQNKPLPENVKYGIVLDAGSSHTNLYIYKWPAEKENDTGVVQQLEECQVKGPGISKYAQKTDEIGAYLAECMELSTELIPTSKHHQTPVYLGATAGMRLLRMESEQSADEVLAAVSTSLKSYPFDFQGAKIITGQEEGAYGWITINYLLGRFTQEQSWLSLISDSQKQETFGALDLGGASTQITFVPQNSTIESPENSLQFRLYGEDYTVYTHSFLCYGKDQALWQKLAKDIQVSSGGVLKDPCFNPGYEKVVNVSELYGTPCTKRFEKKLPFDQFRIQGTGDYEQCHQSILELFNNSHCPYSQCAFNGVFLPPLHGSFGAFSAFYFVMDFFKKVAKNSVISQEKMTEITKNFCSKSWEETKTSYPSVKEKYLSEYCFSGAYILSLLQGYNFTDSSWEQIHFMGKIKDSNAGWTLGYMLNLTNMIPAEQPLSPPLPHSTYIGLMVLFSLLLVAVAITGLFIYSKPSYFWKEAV
Experimental: Cells were incubated with various concentration of unlabeled anti-CD39 antibody from 30 μg/ml to 5×10⁻⁴ μg/ml, for 30 minutes at 4° C. After washes, cells were incubated with Goat anti-mouse H+L labeled secondary antibody for 30 min at 4° C.

[3] = molecular target: T3, CD39 mutant 5 (human, UniProt P49961 1-510); assay: flow cytometry, Hek-293T cells transfected with CD39 mutant 5 (panel M5), Comp-Alexa Fluor 647-A
T3 construct: Expressed on Hek-293T cells; also called M5
T3 chain: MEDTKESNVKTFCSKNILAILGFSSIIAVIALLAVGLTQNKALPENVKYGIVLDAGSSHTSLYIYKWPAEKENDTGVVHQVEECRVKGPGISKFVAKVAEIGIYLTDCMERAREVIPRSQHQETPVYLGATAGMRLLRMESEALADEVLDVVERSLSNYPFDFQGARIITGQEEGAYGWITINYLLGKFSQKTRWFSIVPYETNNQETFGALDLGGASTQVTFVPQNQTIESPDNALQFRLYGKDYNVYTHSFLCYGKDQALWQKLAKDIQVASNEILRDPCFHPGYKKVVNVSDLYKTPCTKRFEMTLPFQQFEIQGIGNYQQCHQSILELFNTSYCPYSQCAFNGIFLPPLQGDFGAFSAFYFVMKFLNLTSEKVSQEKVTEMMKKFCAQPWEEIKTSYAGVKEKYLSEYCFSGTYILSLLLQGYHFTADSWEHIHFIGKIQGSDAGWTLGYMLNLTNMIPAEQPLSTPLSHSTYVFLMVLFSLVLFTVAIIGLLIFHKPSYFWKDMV
Experimental: (§1) Mutants were transfected in Hek-293T cells, as shown in the table 1, using numbering of SEQ ID NO: 2. […] Mutant 19 includes substitutions at residues R138, M139 and E142.
(§2) Mutants were transfected in Hek-293T cells, as shown in the table 1, using numbering of SEQ ID NO: 2. Dose-ranges of test antibodies (10-2.5-0.625-0.1563-0.0391-0.0098-0.0024-0.0006 μg/ml) are tested on the 20 generated mutants by flow cytometry.

[4] = molecular target: T4, CD39 mutant 19 (human, UniProt P49961 1-510); assay: flow cytometry, Hek-293T cells transfected with CD39 mutant 19 (panel M19); antibody concentration not shown
T4 construct: Expressed on Hek-293T cells; also called M19
T4 chain: T3 chain with A96Q, A99N, R138A, M139A, E142K, A143E, E147R
Experimental: as §1, §2

binding result [1]: no binding (tested: about 50 µg/ml)
binding result [2]: no binding (tested: about 30 µg/ml)
binding result [3]: binds
binding result [4]: no binding
B1: antibody I-394 (antibody, human IgG1, kappa, V domains shown)
VH: EVQLQQSGPELVKPGASVKMSCKASGYTFTDYNMHWVKQSHGRTLEWIGYIVPLNGGSTFNQKFKGRATLTVNTSSRTAYMELRSLTSEDSAAYYCARGGTRFAYWGQGTLVTVSA
VL: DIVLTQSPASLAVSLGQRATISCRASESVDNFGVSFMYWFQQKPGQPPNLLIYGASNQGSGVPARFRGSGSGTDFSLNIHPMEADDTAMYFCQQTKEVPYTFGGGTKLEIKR
